{"source": "paper PMC4788497", "about": "(Methods in molecular biology (Clifton, N.J.), 2014)", "proteins": {"B1": {"name": "DGCR8 NC1 (amino acid residues 276-751 of human DGCR8), Fe(III) heme-bound dimer (domain or fragment, UniProt Q8WYQ5 276-751, looked up)", "chain": "DGETSVQPMMTKIKTVLKSRGRPPTEPLPDGWIMTFHNSGVPVYLHRESRVVTWSRPYFLGTGSIRKHDPPLSSIPCLHYKKMKDNEEREQSSDLTPSGDVSPVKPLSRSAELEFPLDEPDSMGADPGPPDEKDPLGAEAAPGALGQVKAKVEVCKDESVDLEEFRSYLEKRFDFEQVTVKKFRTWAERRQFNREMKRKQAESERPILPANQKLITLSVQDAPTKKEFVINPNGKSEVCILHEYMQRVLKVRPVYNFFECENPSEPFGASVTIDGVTYGSGTASSKKLAKNKAARATLEILIPDFVKQTSEEKPKDSEELEYFNHISIEDSRVYELTSKAGLLSPYQILHECLKRNHGMGDTSIKFEVVPGKNQKSEYVMACGKHTVRGWCKNKRVGKQLASQKILQLLHPHVKNWGSLLRMYGRESSKMVKQETSDKSVIELQQYAKKNKPNLHILSKLQEEMKRLAEEREETRK"}}, "target": "the molecule itself", "test": "SEC"}
{"protein": "B1", "values": [{"measurement": "binding result", "value": "binds"}]}
